Where “and” joins values, the source holds several entries; their conditions need not be identical. Equal entries are not always repeated.

Some targets named below: human α7 nAChR (human) (UniProt P36544); rat α4β2 nAChR (rat) (UniProt P09483); rat α7 nAChR (rat) (UniProt Q05941); rat α6/α3β4 nAChR (rat) (UniProt P12392).
What all share (assay): cell-based or functional assay
For experiment [1], the target named is human α6/α3β2β3 nAChR (human) (UniProt P17787).
Experiment [2] addresses rat NMDA receptor NR1-2b/NR2C (rat) (UniProt P35439).
The target in experiment [3] is rat NMDA receptor NR1-2b/NR2A (rat) (UniProt P35439).
Experiment [4] addresses rat NMDA receptor NR1-2b/NR2D (rat) (UniProt P35439).
Experiment [5] deals with rat NMDA receptor NR1-2b/NR2B (rat) (UniProt P35439).

rat α6/α3β4 nAChR (rat), sequence (P12392 21-495): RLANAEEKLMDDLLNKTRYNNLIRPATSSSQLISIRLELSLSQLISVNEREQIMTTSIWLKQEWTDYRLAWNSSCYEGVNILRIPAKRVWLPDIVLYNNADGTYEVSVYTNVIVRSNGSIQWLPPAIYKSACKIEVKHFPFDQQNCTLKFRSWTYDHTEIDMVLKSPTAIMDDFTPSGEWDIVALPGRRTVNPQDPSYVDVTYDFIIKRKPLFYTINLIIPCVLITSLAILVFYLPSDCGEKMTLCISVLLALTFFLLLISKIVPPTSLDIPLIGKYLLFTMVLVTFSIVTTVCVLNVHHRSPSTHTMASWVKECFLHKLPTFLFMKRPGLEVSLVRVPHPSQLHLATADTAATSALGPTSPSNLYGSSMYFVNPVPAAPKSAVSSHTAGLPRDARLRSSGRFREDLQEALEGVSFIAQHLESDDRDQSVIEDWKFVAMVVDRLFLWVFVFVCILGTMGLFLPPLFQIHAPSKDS
human α7 nAChR (human), sequence (P36544 23-502): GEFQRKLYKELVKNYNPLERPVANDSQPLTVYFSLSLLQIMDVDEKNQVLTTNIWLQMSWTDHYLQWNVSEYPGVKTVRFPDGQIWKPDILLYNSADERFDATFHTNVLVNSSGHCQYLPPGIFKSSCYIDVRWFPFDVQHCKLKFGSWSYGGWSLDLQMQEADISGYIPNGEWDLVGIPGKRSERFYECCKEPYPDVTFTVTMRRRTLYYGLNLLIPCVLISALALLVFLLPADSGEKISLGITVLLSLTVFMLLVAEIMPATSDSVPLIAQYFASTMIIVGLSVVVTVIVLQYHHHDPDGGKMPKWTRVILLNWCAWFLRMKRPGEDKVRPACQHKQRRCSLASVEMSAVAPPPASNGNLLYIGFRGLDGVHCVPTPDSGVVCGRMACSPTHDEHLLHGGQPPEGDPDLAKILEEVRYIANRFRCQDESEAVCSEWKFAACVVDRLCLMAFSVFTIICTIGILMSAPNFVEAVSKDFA
human α6/α3β2β3 nAChR (human), sequence (P17787 26-502, chain 1 of 2): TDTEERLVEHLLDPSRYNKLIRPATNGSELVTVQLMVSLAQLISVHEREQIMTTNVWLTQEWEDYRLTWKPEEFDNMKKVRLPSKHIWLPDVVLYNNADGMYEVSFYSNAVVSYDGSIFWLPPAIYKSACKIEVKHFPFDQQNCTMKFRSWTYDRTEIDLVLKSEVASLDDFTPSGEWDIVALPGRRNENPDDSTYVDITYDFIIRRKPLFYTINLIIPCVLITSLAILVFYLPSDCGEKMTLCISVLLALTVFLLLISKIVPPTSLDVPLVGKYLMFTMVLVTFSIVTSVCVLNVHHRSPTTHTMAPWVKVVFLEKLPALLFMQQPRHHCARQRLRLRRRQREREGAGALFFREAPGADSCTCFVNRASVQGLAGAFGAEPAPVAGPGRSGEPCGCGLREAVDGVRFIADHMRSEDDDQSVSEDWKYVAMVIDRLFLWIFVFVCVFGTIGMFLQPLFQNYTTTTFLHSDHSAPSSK
human α6/α3β2β3 nAChR (human), sequence (Q05901 22-458, chain 2 of 2, further chain): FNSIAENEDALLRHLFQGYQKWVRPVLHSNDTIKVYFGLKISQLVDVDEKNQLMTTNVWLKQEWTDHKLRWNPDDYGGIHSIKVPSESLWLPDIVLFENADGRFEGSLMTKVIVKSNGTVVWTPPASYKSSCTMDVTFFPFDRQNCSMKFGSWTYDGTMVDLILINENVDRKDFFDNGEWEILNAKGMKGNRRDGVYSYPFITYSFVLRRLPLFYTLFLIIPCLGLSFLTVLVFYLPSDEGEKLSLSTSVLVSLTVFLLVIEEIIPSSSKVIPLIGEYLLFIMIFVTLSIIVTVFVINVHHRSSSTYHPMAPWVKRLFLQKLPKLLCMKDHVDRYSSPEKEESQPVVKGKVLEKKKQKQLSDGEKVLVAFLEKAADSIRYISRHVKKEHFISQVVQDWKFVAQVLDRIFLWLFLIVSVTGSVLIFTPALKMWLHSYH
rat α7 nAChR (rat), sequence (Q05941 23-502): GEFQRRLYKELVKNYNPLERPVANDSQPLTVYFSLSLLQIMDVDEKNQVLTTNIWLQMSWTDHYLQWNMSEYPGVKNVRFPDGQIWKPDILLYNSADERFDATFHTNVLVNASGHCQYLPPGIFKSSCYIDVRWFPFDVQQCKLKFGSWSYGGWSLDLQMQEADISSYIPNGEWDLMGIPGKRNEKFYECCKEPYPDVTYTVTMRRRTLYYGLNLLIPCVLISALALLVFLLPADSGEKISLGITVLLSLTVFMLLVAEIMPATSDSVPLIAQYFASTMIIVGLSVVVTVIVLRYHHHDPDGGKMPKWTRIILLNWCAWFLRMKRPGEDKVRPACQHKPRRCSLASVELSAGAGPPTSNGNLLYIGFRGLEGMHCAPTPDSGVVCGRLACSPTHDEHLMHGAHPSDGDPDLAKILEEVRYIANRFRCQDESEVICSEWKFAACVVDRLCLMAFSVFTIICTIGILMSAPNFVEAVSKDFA
rat α4β2 nAChR (rat), sequence (P09483 31-630, chain 1 of 2): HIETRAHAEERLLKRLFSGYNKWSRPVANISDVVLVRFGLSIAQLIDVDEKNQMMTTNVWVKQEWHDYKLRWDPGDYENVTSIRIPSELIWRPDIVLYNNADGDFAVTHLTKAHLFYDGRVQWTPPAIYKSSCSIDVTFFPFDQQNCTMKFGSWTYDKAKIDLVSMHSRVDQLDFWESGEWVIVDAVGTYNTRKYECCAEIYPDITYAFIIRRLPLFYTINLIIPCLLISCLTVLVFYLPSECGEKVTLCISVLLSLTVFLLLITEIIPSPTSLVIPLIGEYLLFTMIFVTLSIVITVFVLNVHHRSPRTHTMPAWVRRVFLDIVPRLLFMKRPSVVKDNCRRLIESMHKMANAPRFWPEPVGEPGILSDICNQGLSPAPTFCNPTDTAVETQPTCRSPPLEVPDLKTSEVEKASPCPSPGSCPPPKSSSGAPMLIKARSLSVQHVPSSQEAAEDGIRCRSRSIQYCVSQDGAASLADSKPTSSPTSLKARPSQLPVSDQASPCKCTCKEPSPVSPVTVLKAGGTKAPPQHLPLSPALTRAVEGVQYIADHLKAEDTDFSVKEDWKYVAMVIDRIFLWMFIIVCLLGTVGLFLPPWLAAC
rat α4β2 nAChR (rat), sequence (P12390 25-500, chain 2 of 2, further chain): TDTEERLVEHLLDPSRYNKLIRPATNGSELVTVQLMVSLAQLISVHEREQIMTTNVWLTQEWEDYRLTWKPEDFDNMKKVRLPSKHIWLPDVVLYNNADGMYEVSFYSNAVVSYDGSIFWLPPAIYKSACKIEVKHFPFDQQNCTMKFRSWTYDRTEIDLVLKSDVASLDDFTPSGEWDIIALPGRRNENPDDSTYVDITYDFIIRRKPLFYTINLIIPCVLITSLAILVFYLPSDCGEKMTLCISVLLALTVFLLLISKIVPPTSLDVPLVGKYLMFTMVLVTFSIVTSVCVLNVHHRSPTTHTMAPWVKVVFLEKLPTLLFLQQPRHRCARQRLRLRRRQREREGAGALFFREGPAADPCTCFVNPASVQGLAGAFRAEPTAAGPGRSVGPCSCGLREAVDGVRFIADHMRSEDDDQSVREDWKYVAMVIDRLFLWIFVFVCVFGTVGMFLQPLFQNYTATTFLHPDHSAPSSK

“αO-conotoxin GeXIVA14 (GeXIVA mature peptide isomer with disulfide bonds I-IV, II-III)”: the Half-blocking dose IC50, ACh-gated current, oocyte voltage clamp in experiment [1] came out at 197 nM; in the experiment with human α7 nAChR (human), 865 nM; with rat α4β2 nAChR (rat) it was 200 nM; in the experiment with rat α7 nAChR (rat) it was 1740 nM; in the experiment with rat α6/α3β4 nAChR (rat), 611 nM. The Half-blocking dose IC50, NMDA receptor current, oocyte voltage clamp in [2] is above 10000 nM; in experiment [3], 7400 nM; in [4] it was above 10000 nM.
Consider “αO-conotoxin GeXIVA13 (GeXIVA mature peptide isomer with disulfide bonds I-III, II-IV)”, for which the Half-blocking dose IC50, NMDA receptor current, oocyte voltage clamp in experiment [5] is > 10000 nM and 17000 nM; in experiment [2] it was above 10000 nM; in [3], above 10000 nM; in experiment [4] it was above 10000 nM. Moreover, the Half-blocking dose IC50, ACh-gated current, oocyte voltage clamp was found to be 141 nM in [1], 3300 nM with human α7 nAChR (human), 4960 nM in the experiment with rat α7 nAChR (rat) and 483 nM in the experiment with rat α6/α3β4 nAChR (rat).

Values taken from patent US20150158921A1.
